Reference: paper doi:10.1101/2021.07.22.452893 (bioRxiv, 2021)

T1: fibrinogen (UniProt P02671-2 20-644; P02675 31-491; P02679-2 27-437)
T1 sequence (looked up) 1: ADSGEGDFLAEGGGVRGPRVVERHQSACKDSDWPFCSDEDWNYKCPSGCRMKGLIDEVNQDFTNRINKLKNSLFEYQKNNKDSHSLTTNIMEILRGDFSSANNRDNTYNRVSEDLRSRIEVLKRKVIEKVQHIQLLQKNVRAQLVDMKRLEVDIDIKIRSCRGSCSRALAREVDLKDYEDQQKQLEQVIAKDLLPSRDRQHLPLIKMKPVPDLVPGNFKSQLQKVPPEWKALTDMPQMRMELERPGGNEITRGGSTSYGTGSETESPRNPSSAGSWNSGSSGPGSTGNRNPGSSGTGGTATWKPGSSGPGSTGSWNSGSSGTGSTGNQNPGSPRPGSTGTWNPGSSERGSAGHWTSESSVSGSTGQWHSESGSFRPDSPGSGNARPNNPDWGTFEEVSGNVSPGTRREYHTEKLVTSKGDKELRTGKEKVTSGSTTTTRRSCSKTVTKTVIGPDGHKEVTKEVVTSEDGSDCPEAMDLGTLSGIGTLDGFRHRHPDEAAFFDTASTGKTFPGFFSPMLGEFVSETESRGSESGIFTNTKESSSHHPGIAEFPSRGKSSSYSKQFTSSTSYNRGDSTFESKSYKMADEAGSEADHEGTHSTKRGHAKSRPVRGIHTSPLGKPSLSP
T1 sequence (looked up) 2: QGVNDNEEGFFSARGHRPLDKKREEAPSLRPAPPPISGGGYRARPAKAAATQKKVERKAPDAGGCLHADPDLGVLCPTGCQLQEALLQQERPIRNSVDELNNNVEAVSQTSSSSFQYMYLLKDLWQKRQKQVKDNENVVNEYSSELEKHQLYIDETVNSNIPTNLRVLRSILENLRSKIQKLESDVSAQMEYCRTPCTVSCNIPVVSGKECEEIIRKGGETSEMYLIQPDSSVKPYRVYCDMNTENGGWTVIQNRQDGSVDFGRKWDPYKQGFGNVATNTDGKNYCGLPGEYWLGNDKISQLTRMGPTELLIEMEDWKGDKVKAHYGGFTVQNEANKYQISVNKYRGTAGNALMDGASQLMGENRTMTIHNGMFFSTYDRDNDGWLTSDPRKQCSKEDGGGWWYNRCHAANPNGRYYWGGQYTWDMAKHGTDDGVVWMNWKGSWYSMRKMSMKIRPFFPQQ
T1 sequence (looked up) 3: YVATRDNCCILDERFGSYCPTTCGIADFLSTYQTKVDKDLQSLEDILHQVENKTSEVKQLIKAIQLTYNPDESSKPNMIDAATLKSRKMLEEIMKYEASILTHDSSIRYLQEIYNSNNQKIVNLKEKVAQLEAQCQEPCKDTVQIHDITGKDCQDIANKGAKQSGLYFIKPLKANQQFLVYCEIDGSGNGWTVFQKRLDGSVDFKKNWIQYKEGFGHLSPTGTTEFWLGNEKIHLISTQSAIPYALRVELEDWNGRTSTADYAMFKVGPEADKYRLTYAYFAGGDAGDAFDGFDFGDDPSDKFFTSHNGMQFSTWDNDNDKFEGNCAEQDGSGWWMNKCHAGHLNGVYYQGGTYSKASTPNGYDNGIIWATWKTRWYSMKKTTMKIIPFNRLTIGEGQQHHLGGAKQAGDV


Tests used:
[1] = molecular target: Complement factor H (human) (UniProt P08603); test: ELISA
[2] = molecular target: PPACK-thrombin; test: SPR
[3] = molecular target: T1, fibrinogen; test: SPR

| Molecule | FH-thrombin complex formed in plasma [1] | Kd [2] | Kd [3] |
| --- | --- | --- | --- |
| PPACK-thrombin (enzyme) | 62 nM | – | – |
| Complement factor H (natural protein, human, UniProt P08603 19-1231, looked up) EDCNELPPRRNTEILTGSWSDQTYPEGTQAIYKCRPGYRSLGNVIMVCRKGEWVALNPLRKCQKRPCGHPGDTPFGTFTLTGGNVFEYGVKAVYTCNEGYQLLGEINYRECDTDGWTNDIPICEVVKCLPVTAPENGKIVSSAMEPDREYHFGQAVRFVCNSGYKIEGDEEMHCSDDGFWSKEKPKCVEISCKSPDVINGSPISQKIIYKENERFQYKCNMGYEYSERGDAVCTESGWRPLPSCEEKSCDNPYIPNGDYSPLRIKHRTGDEITYQCRNGFYPATRGNTAKCTSTGWIPAPRCTLKPCDYPDIKHGGLYHENMRRPYFPVAVGKYYSYYCDEHFETPSGSYWDHIHCTQDGWSPAVPCLRKCYFPYLENGYNQNYGRKFVQGKSIDVACHPGYALPKAQTTVTCMENGWSPTPRCIRVKTCSKSSIDIENGFISESQYTYALKEKAKYQCKLGYVTADGETSGSITCGKDGWSAQPTCIKSCDIPVFMNARTKNDFTWFKLNDTLDYECHDGYESNTGSTTGSIVCGYNGWSDLPICYERECELPKIDVHLVPDRKKDQYKVGEVLKFSCKPGFTIVGPNSVQCYHFGLSPDLPICKEQVQSCGPPPELLNGNVKEKTKEEYGHSEVVEYYCNPRFLMKGPNKIQCVDGEWTTLPVCIVEESTCGDIPELEHGWAQLSSPPYYYGDSVEFNCSESFTMIGHRSITCIHGVWTQLPQCVAIDKLKKCKSSNLIILEEHLKNKKEFDHNSNIRYRCRGKEGWIHTVCINGRWDPEVNCSMAQIQLCPPPPQIPNSHNMTTTLNYRDGEKVSVLCQENYLIQEGEEITCKDGRWQSIPLCVEKIPCSQPPQIEHGTINSSRSSQESYAHGTKLSYTCEGGFRISEENETTCYMGKWSSPPQCEGLPCKSPPEISHGVVAHMSDSYQYGEEVTYKCFEGFGIDGPAIAKCLGEKWSHPPSCIKTDCLSLPSFENAIPMGEKKDVYKAGEQVTYTCATYYKMDGASNVTCINSRWTGRPTCRDTSCVNPPTVQNAYIVSRQMSKYPSGERVRYQCRSPYEMFGDEEVMCLNGNWTEPPQCKDSTGKCGPPPPIDNGDITSFPLSVYAPASSVEYQCQNLYQLEGNKRITCRNGQWSEPPKCLHPCVISREIMENYNIALRWTAKQKLYSRTGESVEFVCKRGYRLSSRSHTLRTTCWDGKLEYPTCAKR | – | 29.7 nM | 38.2 nM |
